The term koff denotes a measure of how fast the partners let go of each other.

Positions count from the first letter of the chain named.

Consider 42 molecules from patent publication US20150232562A1 (Ablynx, published 2015).

The target in assay [1] is T1, Epidermal Growth Factor Receptor 2 (HER2) (human, UniProt P04626 23-1255).
T1 construct: whole, on cells; the cell line is named under assay; also called ErbB-2; ERBB2
Description: FMAT competition on SKBR3 cells, periplasmic extract.

Assay [2] concerns the target T2, recombinant human ErbB2/Fc chimera (human, UniProt P04626 23-652).
T2 construct: bought from R&D Systems; also called rhErbB2-Fc; rhErb2-Fc; Fc part of the bought chimera not given; not described
Kind of assay: SPR (Biacore 3000), periplasmic extract over immobilised rhErbB2-Fc. In general terms: Surface plasmon resonance follows binding to a sensor surface in real time, without labels.

B1: 118N121_A1_4_OK/1-127 (VHH)
VHH: EVQLVESGGGFVQTGGSPRLSCAASGRSFSEYAAAWFRQSPGKERDLVAGIMWDGRSLFYADSVKGRFTISRDNAKNTLHLQMNSLKPEDTAVYYCAYHKTPYTTLELNRPHAFGSWGQGTQVTVSS
notes: C-term myc-His6 tag
B1: the “% blocking of Herceptin binding” value in assay [1] is greater than 90%.

B2: 17E3 (VHH)
VHH: EVQLVESGGGLVQAGGSLRLSCVASKMTFMRYTMGWYRQAPGKQRDLVASIDSSGGTNYADSVKGRFTISRDNAKNTVYLEMNSLTPEDTAVYYCNQGWKIVPTDRTGHGTQVTVSS
notes: C-term myc-His6 tag
As to B2, in assay [1], the “% blocking of Herceptin binding” value was greater than 90%.

B3: 5G4 (VHH)
VHH: EVQLVESGGGLVQPGGSLTLSCAGSGFIFDDYAMSWVRQAPGKGLEWVSSINWSGSHRNYADSVKGRFTISRDNAKKTLYLQMNSLKSEDTAVYYCATGWQSTTKNQNYWGQGTQVTVSS
notes: C-term myc-His6 tag
In the case of B3, the “% blocking of Herceptin binding” value in assay [1] was greater than 90%.

B4: 15B7 (VHH)
VHH: B3 VHH with T19K, G24A, S50A, L79V, K87Q, A97G, N106S, N108G
notes: C-term myc-His6 tag
For B4, the “% blocking of Herceptin binding” value in assay [1] was greater than 90%.

B5: 15G7 (VHH)
VHH: B3 VHH with T19R, G24A, S50A, S56T, A75N, L79V, N108G
notes: C-term myc-His6 tag
With B5, in assay [1], the “% blocking of Herceptin binding” value is greater than 90%.

B6: 2E2 (VHH)
VHH: EVQLVESGGGLVQPGGSLRLSCVASGFSLDDYGMTWVRQAPGKGLEWVSSINWSGTHTDYADSVKGRFTISRDNAKNTLFLQMNSLTPEDTAVYYCNQGWKIIPTDRRGHGTQVTVSS
notes: C-term myc-His6 tag
With B6, in assay [1], the “% blocking of Herceptin binding” value is greater than 90%.

B7: 2H3 (VHH)
VHH: B6 VHH
notes: C-term myc-His6 tag
Take B7: in assay [1], the “% blocking of Herceptin binding” value is greater than 90%.

B8: 17E4 (VHH)
VHH: B6 VHH with T69V, T87S
notes: C-term myc-His6 tag
As for B8, the “% blocking of Herceptin binding” value in assay [1] was greater than 90%.

B9: 29H2 (VHH)
VHH: B6 VHH with S85N
notes: C-term myc-His6 tag
B9: the “% blocking of Herceptin binding” value in assay [1] was greater than 90%.

B10: 15C11 (VHH)
VHH: B6 VHH with I103L, T105A, D106E, Q113P
notes: C-term myc-His6 tag
Take B10: the “% blocking of Herceptin binding” value in assay [1] was greater than 90%.

B11: 13D2 (VHH)
VHH: B6 VHH with S85N, T87R, P88S, Y95S, I103V, R108G
notes: C-term myc-His6 tag
As to B11, the “% blocking of Herceptin binding” value in assay [1] was greater than 90%.

B12: 13B10 (VHH)
VHH: B6 VHH with L45F, T87S, I103L, D106N, R108G, G109S
notes: C-term myc-His6 tag
With B12, in assay [1], the “% blocking of Herceptin binding” value is greater than 90%.

B13: 15C5 (VHH)
VHH: B6 VHH with R19K, S54N, G55V, D62Y
notes: C-term myc-His6 tag
In the case of B13, the “% blocking of Herceptin binding” value in assay [1] is greater than 90%.

B14: 17H3 (VHH)
VHH: B6 VHH with V5M, T87R, P88S, I103V, R108G
notes: C-term myc-His6 tag
As for B14, in assay [1], the “% blocking of Herceptin binding” value is greater than 90%.

B15: 15D1 (VHH)
VHH: B6 VHH with G33A, T87N, I102V, I103W, R108G, G109T
notes: C-term myc-His6 tag
For the molecule B15, in assay [1], the “% blocking of Herceptin binding” value was greater than 90%.

B16: 17A2 (VHH)
VHH: B6 VHH with G33A, T87S, Q98K, I102V, I103W, R108G, G109T
notes: C-term myc-His6 tag
As to B16, in assay [1], the “% blocking of Herceptin binding” value is greater than 90%.

B17: 17D2 (VHH)
VHH: B6 VHH with T87R, P88S, I103V, R108G, G109S
notes: C-term myc-His6 tag
For B17, the “% blocking of Herceptin binding” value in assay [1] was greater than 90%.

B18: 2D5 (VHH)
VHH: B6 VHH with T87R, P88S, I103V, R108G
notes: C-term myc-His6 tag
With B18, the koff in assay [2] was 0.0012 s⁻¹. For the same molecule, in assay [1], the “% blocking of Herceptin binding” value is greater than 90%.

B19: 27G8 (VHH)
VHH: B6 VHH with I103L, T105A, D106E
notes: C-term myc-His6 tag
In the case of B19, the “% blocking of Herceptin binding” value in assay [1] is greater than 90%.

B20: 38C6 (VHH)
VHH: B6 VHH with A24G, G33A, T87S, I103R, D106I, R107P, R108M
notes: C-term myc-His6 tag
In the case of B20, in assay [1], the “% blocking of Herceptin binding” value was greater than 90%.

B21: 2C2 (VHH)
VHH: B6 VHH with G33A, K76R, V93I, I103L
notes: C-term myc-His6 tag
For the molecule B21, the koff in assay [2] was 0.00412 s⁻¹. Also, the “% blocking of Herceptin binding” value in assay [1] is greater than 90%.

B22: 2E3 (VHH)
VHH: B6 VHH with T87S, I103L, D106N, R108G, G109S
notes: C-term myc-His6 tag
As for B22, in assay [1], the “% blocking of Herceptin binding” value is greater than 90%.

B23: 2C1 (VHH)
VHH: B6 VHH with A61T
notes: C-term myc-His6 tag
As to B23, in assay [2], the koff came out at 0.00118 s⁻¹.

B24: 13D11 (VHH)
VHH: B6 VHH with Q13H, A24G, Q39R, T87N, N97G, I103V, D106N, R107P
notes: C-term myc-His6 tag
Regarding B24, the “% blocking of Herceptin binding” value in assay [1] was greater than 90%.

B25: 17B8 (VHH)
VHH: B6 VHH with I103L, T105A, D106E
notes: C-term myc-His6 tag
With B25, the “% blocking of Herceptin binding” value in assay [1] was greater than 90%.

B26: 17H4 (VHH)
VHH: B6 VHH with D30I, D31N, G33A, Q82H, S85N, T87S, N97G, I103H, T105A, R108G
notes: C-term myc-His6 tag
For B26, the “% blocking of Herceptin binding” value in assay [1] was greater than 90%.

B27: 2B4 (VHH)
VHH: B6 VHH with A24G, G33A, T87S, I103R, D106I, R107P, R108M
notes: C-term myc-His6 tag
Regarding B27, the koff in assay [2] was 0.00277 s⁻¹.

B28: 15G8 (VHH)
VHH: B6 VHH with R19K, S54N, D62Y, D90N, I103L, T105A, D106E
notes: C-term myc-His6 tag
With B28, the “% blocking of Herceptin binding” value in assay [1] was greater than 90%.

B29: 2H4 (VHH)
VHH: EVQLVESGGSLVQPGGSLRLSCAASGFTFDDYAMTWVRQAPGKGLEWVSSINWSGTHTDYTDSVKGRFTISRNNANNTLYLQMNSLKSEDTAVYYCAKNWGDAGTTWFEKSGSAGQGTQVTVSS
notes: C-term myc-His6 tag
Turning to B29, the off-rate constant (koff) in assay [2] worked out at 0.00161 s⁻¹. Also, the “% blocking of Herceptin binding” value in assay [1] was greater than 90%.

B30: 30H9 (VHH)
VHH: B29 VHH
notes: C-term myc-His6 tag
As to B30, the “% blocking of Herceptin binding” value in assay [1] was greater than 90%.

B31: 39C1 (VHH)
VHH: B29 VHH with Q13P, A33G, T35S
notes: C-term myc-His6 tag
Consider B31, for which the “% blocking of Herceptin binding” value in assay [1] was greater than 90%.

B32: 17G8 (VHH)
VHH: B29 VHH with Q13P, T35S, D59G
notes: C-term myc-His6 tag
Turning to B32, in assay [1], the “% blocking of Herceptin binding” value was greater than 90%.

B33: 27B1 (VHH)
VHH: B29 VHH with T35S, V48I, T61A, S85N, S88F, G101R
notes: C-term myc-His6 tag
For the molecule B33, the “% blocking of Herceptin binding” value in assay [1] was greater than 90%.

B34: 2F3 (VHH)
VHH: B29 VHH with D62G, E89D, Q116P
notes: C-term myc-His6 tag
B34: in assay [2], the koff turned out to be 0.00153 s⁻¹. The “% blocking of Herceptin binding” value in assay [1] is greater than 90%.

B35: 2F5 (VHH)
VHH: B29 VHH with Q13P, T35S
notes: C-term myc-His6 tag
Consider B35, for which the koff in assay [2] was determined as 0.00157 s⁻¹. For the same molecule, in assay [1], the “% blocking of Herceptin binding” value is greater than 90%.

B36: 29H1 (VHH)
VHH: B29 VHH with Q13P, T35S, D59G
notes: C-term myc-His6 tag
In the case of B36, in assay [1], the “% blocking of Herceptin binding” value is greater than 90%.

B37: 27D4 (VHH)
VHH: B29 VHH with P41S, T61A
notes: C-term myc-His6 tag
Take B37: the “% blocking of Herceptin binding” value in assay [1] is greater than 90%.

B38: 2B1 (VHH)
VHH: B29 VHH with E89D, Q116P
notes: C-term myc-His6 tag
B38: in assay [2], the koff was 0.00155 s⁻¹.

B39: 17E10 (VHH)
VHH: B29 VHH with Y60C
notes: C-term myc-His6 tag
B39: the “% blocking of Herceptin binding” value in assay [1] is greater than 90%.

B40: 30E10 (VHH)
VHH: B29 VHH with E1K, Q13P
notes: C-term myc-His6 tag
In the case of B40, in assay [1], the “% blocking of Herceptin binding” value was greater than 90%.

B41: 27G2 (VHH)
VHH: B29 VHH with A40T, E89D, Q116P
notes: C-term myc-His6 tag
Consider B41, for which the “% blocking of Herceptin binding” value in assay [1] is greater than 90%.

B42: 2D4 (VHH)
VHH: B29 VHH with T61A, E89D, Q116P
notes: C-term myc-His6 tag
On to B42, for which the koff in assay [2] is 0.00165 s⁻¹. The “% blocking of Herceptin binding” value in assay [1] was greater than 90%.
